The values that follow come from the supplement of paper PMC12042874.

± gives the uncertainty stated by the source.

The data set in a line: amyloid nucleation score (Sup35N fusion, yeast selection) (log enrichment); library NNK2; higher = more nucleation; inactive = no reads after selection. The method in brief:
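The nucleation score, computed with DiMSum, is the log enrichment of output over input reads, centred on the mode score of non-aggregating sequences. Sequences with under 100 input reads were dropped. Reads were generated by Illumina sequencing of plasmid inserts from psi-negative yeast with Sup35N fused to peptides of 20 random codons, induced with 100 μM copper sulfate for 24 hours and grown 7 days at 30°C on medium lacking adenine and uracil.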
Consider DLLVCC, for which the amyloid nucleation score came out at 1.28 ± 0.26.
On to YTDLG, for which the amyloid nucleation score was determined as 0.563 ± 0.44.
With KHSIMRRKRGFPATKR, the amyloid nucleation score stood at 0.722 ± 0.43.
Take LINVMLS: the amyloid nucleation score entry was “inactive”.
In turn, TEDVDL gave an amyloid nucleation score of 1.5 ± 0.2.
The value for MTYIRFPLMQGHFWIMSNSK was 0.181 ± 0.35; that for IEVFDIWCPAGFVMEALRFV was 4.28 ± 0.099.
The value for LQYCHRGC was -0.179 ± 0.44.
Under SIRRTLVGQRAHEGKFWYGV stands -0.504 ± 0.63; under GMLVELHYGPMY, 0.334 ± 0.56; under SFWNQKYCA, -0.117 ± 0.4.
As for GRIVVFV, the amyloid nucleation score was 0.538 ± 0.39.
As to DYWFRGAESCTCGLE, the amyloid nucleation score came out at 0.012 ± 0.63.
For RVPFWFT, the amyloid nucleation score is -1.2 ± 0.49.
The value for KYMLLCSICIFRNQGKKFRL was 8.384 ± 0.052; that for GMRIFNYKNRDYWMACTAMT was “inactive”.
The value for MEVNLKVKSLCQWGT was 6.791 ± 0.045; that for RYGPIWGYCNKLFWARCTQL was 0.2 ± 0.49.
The value for VRFLVISINAYSVDVPHISI was -1.63 ± 1.1.
As for FKFVIYRFIFHPSEVPKGD, the amyloid nucleation score came to 0.057 ± 1.1.
Under SKRFRLTIDGIGVYRW stands 0.649 ± 0.22; under LAQQRPLRQRTMRHGSRFTA, 0.671 ± 0.43.
Under HYFRIAIL stands -0.667 ± 0.45; under SKGRYAYRRMGAYLCSD, 1.48 ± 0.43.
As for TAYSA, the amyloid nucleation score came to 0.521 ± 0.41.
The value for VFIVMYSKFLKHVYGTTLTN was “inactive”; that for FYSCCPWLSLRSAMIYVMIS was 1.61 ± 0.22; that for YRNRVSLRKYRDARYQLCCT was 0.247 ± 0.25.
As to SYVVGRFNLSRCHLSCGLVS, the amyloid nucleation score result is “inactive”.
Under PFTSYML stands 5.63 ± 0.065; under LSFRYVFIWIEVFPILGNMR, -1.77 ± 0.34.
As to FFFLTHGWEPTVMKEIKSAM, the amyloid nucleation score entry is “inactive”.
Under FYSLTDPCICGCH stands -0.341 ± 0.79; under CMKGVNSLDIASVSQFNLNR, 2.28 ± 0.13.
The value for LYPLCYGL was -0.829 ± 1.1.
The value for VMFYRRYYFKSMANLVDTFR was -0.932 ± 0.48; that for FNSRL was -0.208 ± 1.
As to FRALFSNVVRVDMAMAAGFL, the amyloid nucleation score was -1.79 ± 0.78.
Under VEGTPMFVWINWGVGKVGQS stands 3.42 ± 0.051.
LFAYCMDSHLHTTSKFILTL had an amyloid nucleation score of 0.047 ± 0.5.
Regarding LTVLLSMK, the amyloid nucleation score is -0.911 ± 0.5.
The value for MKGNGCNIFRQGTWRDSFAD was -0.715 ± 0.41.
Under LLLSFTCLRHTGWFFIRRCC stands -0.631 ± 0.41; under MFVVKNRGCVM, -0.16 ± 0.3.
Under YWSCTMRVFRVTLNCSNS stands 3.44 ± 0.066.
In the case of DWFGLCFMKRFKFGEYKACM, the amyloid nucleation score was -1.04 ± 0.48.
Under DGPWYYTVRAEIQPM stands 3.78 ± 0.079.
In turn, WVVRGWLGV displayed an amyloid nucleation score of 0.23 ± 0.38.
The value for GVFLGALCVFTSCLSELWMC was -1.49 ± 0.78; that for VLLSKGRNHSPCVHILAIIP was 0.494 ± 0.8; that for VQCVMSESMDELYSLVLRCP was 0.998 ± 0.28.
On to PIYCNQRVDRALTMFTQFRA, for which the amyloid nucleation score is -0.121 ± 1.1.
The value for NIWFKFPHVLNS was -0.063 ± 0.76.
With LYDTNVKWVFSCYSKACSCK, the amyloid nucleation score was -0.323 ± 0.79.
Under RDKPPVSKYTSRTREFMLVR stands 0.987 ± 0.39; under YQIFNKLVAHFKYNYTQTDR, -0.902 ± 0.56; under ILYGGSPSLYVYAYTKN, 4.35 ± 0.11.
Turning to VLDHDGVVVWNFFPHMYSDP, the amyloid nucleation score amounted to 4.63 ± 0.05.
Consider QDYTDHPGIIFSFRGCSRDT, for which the amyloid nucleation score entry was “inactive”.
With HMFPRWPFDVVKKDPTTTHL, the amyloid nucleation score was 0.31 ± 0.41.
The value for YLYSNG was “inactive”; that for QGEEVGWFRFGRKSGAINMV was 0.076 ± 0.36; that for SRICLLTYMGSIINRDVSVY was -1.6 ± 0.55.
On to CTWDFNDHFMLVQNNDEQLW, for which the amyloid nucleation score is 0.087 ± 0.79.
The value for LSRAN was “inactive”; that for LLTCEASRTPARSQLLASEG was 0.851 ± 0.4.
The value for RESYMLSYGKILNACQCIVG was 9.12 ± 0.079.
NMYTWAE: the amyloid nucleation score was 0.371 ± 0.6.
The value for LSINSFTKHQ was 0.148 ± 1; that for ARTLWY was -0.522 ± 0.28; that for LVIKCFCA was 6.476 ± 0.031.
Under IHRGFILADTLHHYCSGLLI stands -0.199 ± 0.65.
On to YLEWIL, for which the amyloid nucleation score was -2.06 ± 0.54.
With YLKFIKANVRTSGKKLA, the amyloid nucleation score is -0.562 ± 1.1.
Regarding SAHFTIRKELFLKDTRRVV, the amyloid nucleation score was -0.47 ± 1.
In the case of SCTALVKEKMRG, the amyloid nucleation score stood at 0.48 ± 0.32.
As for IYKQLMVCHKCSDSAVTGYQ, the amyloid nucleation score was found to be 6.14 ± 0.075.
In the case of VQDYKSVRYVGNSRIRVGGS, the amyloid nucleation score is -0.392 ± 0.79.
Under RWYSYYTQGDFRRFFLGSN stands “inactive”; under RDALCVHWVAYIGNKHGWVA, 0.965 ± 0.17.
Substance TWGGFRY displayed an amyloid nucleation score of 1.76 ± 0.48.
Under VPGDDPSIVTVMQMYGFSLI stands -0.385 ± 0.64; under WVSCVVCFWIDHESAALESV, 8.784 ± 0.036.
With RLYHPSQWGDLILCIFVMEA, the amyloid nucleation score was -0.343 ± 0.62.
With GAKIGKMDVLGFDGDGLIYI, the amyloid nucleation score was 1.42 ± 0.1.
Substance SRCNISTRLLATLDVLQEKE returned an amyloid nucleation score of 2.25 ± 0.08.
Substance SLIGTRLIGAAGISSVKRLY registered an amyloid nucleation score of 0.208 ± 0.46.
Under RFRKSLGALALRRIVGSEAM stands 1.53 ± 0.39; under GSYPGRLFTCVKMGVT, 0.363 ± 0.65.
Under QSYVLMC stands -0.233 ± 0.48.
YYSCPASLLFNTGLPVKYSW: the amyloid nucleation score was -1.26 ± 0.36.
In the case of FWRVLLSTLHTIFNMRNNMP, the amyloid nucleation score was -1.28 ± 0.54.
For WFNCEWEDEFIEGQRVVMTV, the amyloid nucleation score was 1.44 ± 0.47.
The value for FYLLVFDLHDSCL was “inactive”; that for FFYYMRSIT was -1.9 ± 0.78; that for GSVTRGVRRAY was 4.73 ± 0.06.
Under YFCSLDSMPQSSVFDYLSAL stands -0.43 ± 1.1; under GLDCIVSINRVQLTSAGLIE, 0.382 ± 0.47; under FLTGDFSAHMNLLIWIFEMS, 5.669 ± 0.05.
LNVGIFNLLTSSGFMGTIRR had an amyloid nucleation score of 4.39 ± 0.045.
Substance VSRSVY returned an amyloid nucleation score of 0.166 ± 0.3.
In turn, LLGARDFGWGLHGLLGYRLG showed an amyloid nucleation score of 0.123 ± 0.56.
Under QGMNPLQSLDVKCYYL stands “inactive”; under HAFRDIMYTVTRSWAKRWFY, 1.56 ± 0.11.
Under WFMVYYSLFTVNIGISRMDH stands 3.52 ± 0.16; under CVMFTLSCVNFDCDCSCRWK, 6.31 ± 0.084; under VRSVLVRKGTWARCTRMVAM, 1.05 ± 0.56.
The value for LKQTGQLRVMSN was 0.039 ± 0.79; that for NPHGMLSTRSGSVFMPTIDT was -0.742 ± 1.
Consider KFYIPSDLVLVRCPST, for which the amyloid nucleation score is -0.883 ± 1.1.
The value for SGAQA was -0.966 ± 0.78; that for CKVSVDN was 0.011 ± 0.36; that for GWVVRRINAVVFVASGSI was 5.601 ± 0.048.
The value for SLVIKTLMIFAYSGATVSRG was -0.545 ± 0.64.
For LRVVIHPVRNAGCLGKYGAN, the amyloid nucleation score is -0.509 ± 0.33.
As to QSMTTQNLGVWEELCKAFLI, the amyloid nucleation score result is “inactive”.
The value for LGDAHALCGRLTVCRGGTGP was 3.58 ± 0.075; that for KTNHEELKA was “inactive”.
The value for RFLAN was “inactive”; that for MGAYEGDRVQMLEHADFRKN was -0.355 ± 0.74; that for LFKCVSTGHYLLTFRVVVYG was -0.456 ± 0.39.
Under QIGNVFNRY stands -0.283 ± 1.
Consider PLVEDLRSIYLVRCSAYLQR, for which the amyloid nucleation score was 0.593 ± 0.33.
The value for NQLVWSLNNDLGMENVGGRV was 1.46 ± 0.44; that for VYCRNVELIGAYGIFAGSHI was -0.187 ± 0.79; that for EVTSTY was 0.501 ± 0.46.
Under KRLVGVTAMMCSFFLYLFLE stands 0.859 ± 0.35; under TIALPNFVWPKSSRKVYFS, -0.748 ± 0.32; under SSYNCPHINVCSPSAPNTQM, “inactive”.
As for FMAWTDSLIYKHAICAATL, the amyloid nucleation score was -0.031 ± 0.39.
For NSMILDKNRDSTNFVSCFSY, the amyloid nucleation score is -1.6 ± 0.49.
In turn, RMNGRYNLCTATGLVSASWW returned an amyloid nucleation score of 0.09 ± 0.4.
Under NGRLWNGFMYCGWTNWFFCV stands 1.11 ± 0.34.
Turning to WSRIGG, the amyloid nucleation score is -0.498 ± 0.63.
On to DIVRSYV, for which the amyloid nucleation score was -0.27 ± 0.45.
The substance IMVRVIAFNVL returned an amyloid nucleation score of 6.864 ± 0.041.
On to RTWQCDDWSQYLLVVF, for which the amyloid nucleation score was -0.1 ± 1.
Under RATISLVDMEFSLRDPQ stands “inactive”; under KISFVALAVDARYGWCLFHY, 0.358 ± 0.24.
Under LHSRFL stands 0.236 ± 1.1; under VFSSNEYFPLYSVFIVSEIL, 2.47 ± 0.074.
